assay: soluble fraction after stress (log2 fold change); higher = more stays soluble; pooled small domains, quantitative proteomics; details: stress: 50 degC
Outline: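 Each library was heated to 50°C as a stress step. The libraries, made up of small protein domains, were pooled and analysed at high throughput by quantitative proteomics. The reported value is the base-two logarithm of the fold change in each protein's soluble amount after stress, taken as a measure of aggregation propensity. The higher the value, the more protein stays in solution.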

Q: For “HMGGLAVQLVHAMTDQIRSGRLKAGDKLPTEAAIMKDFGVSRTVVREAISRLQASGWVDTRHGIGTFVLHQ”, which “soluble fraction (log2)” value is on record?
A: Its value is -1.3.

Q: For “HMEEFAGYINGQPYYGPTHQHRGVKMVGAEHTQRPHPLVWDSVAKSLDNYDNRFQWVNGNLLQVV”, which “soluble fraction (log2)” value is on record?
A: Its value is 0.0306.

Q: Which “soluble fraction (log2)” value does the source give for “HMTTVDYDALRAAILQQVVSEDTTPALTTENTEIKYKFKFGLDTWVDLDGGKIAPAVSAKSYEIQISFKG” here?
A: The value was 0.132.

Q: For “HMHRAKRTKAQTQSSLESIEGIGPKTRKQLLVHFGGLAEVKAASVSELQKVKGISLDKAQKIYDFFHGS”, which “soluble fraction (log2)” value is on record?
A: The value was 0.00473.

Q: Which “soluble fraction (log2)” value does the source give for “HMTGLRETIPAALDGERLDRVVALLGDVSRSRASAALEAERVTLDGEVVTLRSHRVREGEELTVAGFE” here?
A: The value was 0.405.

Q: For “HMDIADKLTKREFEIFIAIAMNKSRFDIANELGLSAKTVSNGLTVIKRKLNAVPSQFSAIAAKHGYIG”, which “soluble fraction (log2)” value is on record?
A: Its value is -2.66.

Q: For “HMATVPNVVGLSEEKAKSRLANNGLNVSVTTEEVSDKSKDGIVSSQTSEGDTVKQGATITITVGKYVEK”, which “soluble fraction (log2)” value is on record?
A: The value was 0.14.

Q: Which “soluble fraction (log2)” value does the source give for “HMDYYNILGVNKAATAQDIKRAYRKLAKEHHPDHGGDATRLQQVNEAYDTLKDPQRREQYDS” here?
A: The value was 0.24.

Q: With “HMAENPAYTKGVVNRLYKIRATPYYSYSYNVDQKTYEGRGKQYGEYENLHIGDTITVYYQRSNPSNSEA” as the sequence, how does the “soluble fraction (log2)” value read?
A: The value was -0.414.

Q: With “HMNKVQTFIIEKHIKEVFEHTNRTYYRSGQYYFQTRDEFSMALKRFLKDREPNKKNWIDSIINRA” as the sequence, how does the “soluble fraction (log2)” value read?
A: The value was -0.298.

Q: With “HMQLGSILAYKFPQFGGIDGAWQVRDDSNGTGPYIAFWDAKTIGRGMPTEDELTAWAQEYEA” as the sequence, how does the “soluble fraction (log2)” value read?
A: The value was -0.153.

Q: With “HMAVNDPDEKFIELGIPADWVQVVRKAGFQTVEALKTVENPNKLHQELSGLNKKMKLGLKTLSQDEVKDWF” as the sequence, how does the “soluble fraction (log2)” value read?
A: The value was 0.215.

Q: For “HMNKKAAYKDMAGYFAEMKSKDAADILSRLKDEDIIGIFNEMPRDMVAEMLQKMDRDKATTLTRKML”, which “soluble fraction (log2)” value is on record?
A: The value was 0.385.

Q: Which “soluble fraction (log2)” value does the source give for “HMKPMNNNDILRRLRYTFDLSDDKMMETFALGGYEANRSEISDWLKKDDHPEQKSLYDKSLSHFLNGFIV” here?
A: Its value is -0.202.

Q: Which “soluble fraction (log2)” value does the source give for “HMPSARELLATNIVRLRKEKGWSQEDLALEAGLHRTFVAHVERHARNISLDNIERLANALQVNVHILLL” here?
A: The value was -3.79.

Q: With “HMNSVTLEHIVYDFRVFNMLKGSGINDIDELIKAAEDGRLFKIIGSNLTYKRIKKSAAEFGVILPDKPG” as the sequence, how does the “soluble fraction (log2)” value read?
A: Its value is -0.351.

Q: For “HMDAKIKDYADAYAKMDPQQAASLFNNMTTGSLDLVAKILENIPANKRAAILEKMDVNAAAQVTEKMR”, which “soluble fraction (log2)” value is on record?
A: Its value is 0.117.

Q: For “HMKQLVVVPRVVSLSEGKAREDVGDRGLVVDRVEMDTLRTPYENTVTRQEPAADSRVPVGTRVTLWISPGV”, which “soluble fraction (log2)” value is on record?
A: Its value is 0.261.

Q: With “HMTPKTSVPKPGQTVVVRKGDTIYALARIHDITPADLIAWNRLDNPSQIYPGQVIRLYPQGA” as the sequence, how does the “soluble fraction (log2)” value read?
A: Its value is -0.107.

Q: For “HMVKTIINGEEKDFDAQDFQTFGDFLKKVIPEGQILKSLKINSKDVPIAFIDELKSATVDENITIEMELA”, which “soluble fraction (log2)” value is on record?
A: Its value is 0.429.

Q: With “HMVRKIRARLVLQLRAEGLSGRAIAGSQGMSRKSVTAVLDAADRAGIGWDEIAERSEGEVYALLFPGRG” as the sequence, how does the “soluble fraction (log2)” value read?
A: The value was -1.34.

Q: With “HMQISDTASIQEIAKEIIKSNPKAVEDYKKGKENALQFLVGQLMTKTKGTVHPGAARTILGDILK” as the sequence, how does the “soluble fraction (log2)” value read?
A: The value was 0.0851.

Q: For “HMFNEFEDIPDIISAEGIDPAMREEVAANLKKYYKNPDAMLALAPLEREYYEKLVGILSEKIELKKEN”, which “soluble fraction (log2)” value is on record?
A: Its value is 0.563.

Q: With “HMNDRRQDVFELLKSSERPVSAADLAHKFGVTRQVIVADIALLRASDIDIVSTNRGYILKANL” as the sequence, how does the “soluble fraction (log2)” value read?
A: Its value is -1.49.

Q: Which “soluble fraction (log2)” value does the source give for “HMITNMIIIMKPNASEEAIEKVKHLIESKGLQAHLSKGDEVTIVGVVGDKTRLHDSNIEISEGVDKIVNVT” here?
A: The value was 0.317.

Q: With “HMHKLTSRQEEILQFIKDYLSEIGYPPTRSEIAQKMGFRSTNAAEEHLRALARKGAIEILPGPSRGLRLP” as the sequence, how does the “soluble fraction (log2)” value read?
A: Its value is -0.455.

Q: Which “soluble fraction (log2)” value does the source give for “HMSAIEIDAEKILNYLTDRGGKMPYGDTTAPEVIKDKFNISKAAFKRALGFLLRSNKIEQIDGWTYI” here?
A: The value was -0.317.

Q: Which “soluble fraction (log2)” value does the source give for “HMAYWVVKNNQVSLQINRSNYQITSTARALSNGNLGDEIDVKVLQSGVIKKAVVIGKGQVELLR” here?
A: The value was -1.89.

Q: With “HMSAPAMTLDSIRSLLNDRDPWVVTQTVEWLVGLGPQVKTILETLTLESSDAARQAQNALDRINVRNYP” as the sequence, how does the “soluble fraction (log2)” value read?
A: Its value is -0.155.

Q: For “HMEYNLTLEELNRDLYIRGEIWNVGDVVKTTDGDEGTIIRKGTNYVVFEDLRRVWLHNLEEVK”, which “soluble fraction (log2)” value is on record?
A: Its value is -1.85.

Q: Which “soluble fraction (log2)” value does the source give for “HMRQQLAEILQKAVDNLPEAQRLVWLLRDKSDMTFKEIAEDLQLTEANVRVLLHRARLKLLAVINQYEE” here?
A: The value was -1.38.

Q: For “HMVSLRQQVYDYLRSQMNQGELRPGSAINLGEMSSRFGISRTPLREALLQLETEGFVTIYPRKGIIVN”, which “soluble fraction (log2)” value is on record?
A: The value was -0.793.

Q: Which “soluble fraction (log2)” value does the source give for “HMQMPLTMATMGEVNKIVKVGGNEETRRFLANLGFVAGAEVVVLSKIGGNVIVNVKDSRVAVNEDMARHIM” here?
A: The value was -0.997.

Q: Which “soluble fraction (log2)” value does the source give for “HMEQQEFIVPHDSEGQRLDLFLVSVLGTHSRSQIRKLIVNGHVKLENRAPRPNLPVRAGESVVVSMPEPT” here?
A: The value was 0.121.

Q: Which “soluble fraction (log2)” value does the source give for “HMAATHYEGIKQDGETDDAVIERVLTGLSVTANKDDIFIVKTLIAGTKYSYTAYVYNGNAWAAM” here?
A: The value was 0.0325.

Q: With “HMGSKEQELVILNNILERQLQAINLQKSAAGPMVNLRNVHNTLTKLVEAAGLKNVETYFTDPVIGAAQ” as the sequence, how does the “soluble fraction (log2)” value read?
A: The value was 0.0108.

Q: For “HMGGPEVLELEDVKVGSPGPDEIKVTNHAIGLNYIDTYHRSGLYPLKLPSGIGLEAAGKVEEIGSNV”, which “soluble fraction (log2)” value is on record?
A: Its value is 0.0604.

Q: For “HMEKGLQYRRTDRAIMNAFIKLVNQGSFEKLTVQEILDEALVSRNTFYAHYRDIYDLMDALSN”, which “soluble fraction (log2)” value is on record?
A: The value was -1.55.
